# Reference: US20160244529A1 (ROTTAPHARM BIOTECH S R L, published 2016)
# Where “and” joins values, the source holds several entries; their conditions need not be identical. Equal values may be shown once.
# T1: human Ig1,2 TrkA (recombinant D4-D5 domain of human TrkA receptor) (human, UniProt P04629 191-392)
# T1 construct: also called hTrkA Ig1,2; TrkA Ig1,2
# T1 chain: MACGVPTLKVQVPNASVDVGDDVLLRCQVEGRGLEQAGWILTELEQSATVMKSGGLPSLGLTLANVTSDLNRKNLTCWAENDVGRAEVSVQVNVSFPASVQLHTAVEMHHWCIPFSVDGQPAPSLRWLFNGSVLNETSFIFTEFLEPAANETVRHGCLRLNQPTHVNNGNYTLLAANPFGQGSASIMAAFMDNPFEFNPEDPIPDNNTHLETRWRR
# T2: human p75 immunoadhesin (human; Camelus dromedarius, UniProt P08138 29-250)
# T2 construct: extracellular domain; also called hp75-Fc; p75NTR immunoadhesin; not shown: Fc portion (immunoglobulin heavy chain constant region) of IgG2a camel antibody (Camelus dromedarius)
# T2 sequence (looked up): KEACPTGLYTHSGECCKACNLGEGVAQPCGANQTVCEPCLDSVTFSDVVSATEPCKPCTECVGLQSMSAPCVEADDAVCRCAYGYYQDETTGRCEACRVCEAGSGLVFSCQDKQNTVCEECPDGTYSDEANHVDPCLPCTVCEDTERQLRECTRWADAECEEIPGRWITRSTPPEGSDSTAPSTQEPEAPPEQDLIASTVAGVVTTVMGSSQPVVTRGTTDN
# B1: CRB0089_IgG4 (antibody, V domains shown)
# VH: QVQLQESGPGLVKPSQTLSLTCAISGDSVSSNSAAWNWIRQSPSRGLEWLGRTFHRSRWYNEYPVSVRSRITINPDTSNNQFTLQLNSVTPDDTAVYYCARAPVAGLTFDIWGQGTMVTVSS
# VL: QTVVTQEPSVSGAPGQRVTISCTGSSSIIGAGYEVHWYQHLPGTAPKLLIYDSINRPSGVPDRFSGSKSGTSASLAITGLQAEDEADYYCQSSAIFGGGTKLTVL
# notes: Whole human IgG4 made in CHO-S cells; also called mAb CRB0089_IgG4; anti-TrkA CRB0089_IgG4
# B2: anti-TrkA scFv CRB0088 (scFv)
# scFv: QPVLTQSPPASASLGASVKLTCTLSSGHSSYAIAWHQQQPEKGPRYLMKVNSDGSHNKGDGIPDRFSGSRSGAERYLTISSLHSEDEADYYCQTWGAGGVVFGGGTKLTVLSGGSTSGSGKPGSGEGSSGTEVQLLESGGGLVQPGGSLRLSCAASGFTFSDHYMDWVRQAPGKGLEWVGRIRNKANSYTTEYAASVKGRFTISRDDSKKTLYLQMTSLKTDDTALYYCARDLGASDAFDLWGQGTMVTVSS
# notes: From hSPLINT_09 selection
# B3: anti-TrkA scFv CRB0072 (scFv)
# scFv: DIQMTQSPISLSATVGDRVTITCRASQSIGRYLNWYQQKPGKAPKLLIYGASSLESGVPSRFSGSGSGTVFTLTISGLQPEDFATYCCQQSHSTAWTFGQGTKVEIKSGGSTSGSGKPGSGEGSSGTEVQLVETGGGLVQPGSSLRLSCATSGFTFINYGVHWVRQPPGKGLEWVASIWYEGSNEKYADSVKGRFTISRDNSRYTLHLQLNSLRAEDTADYYCVRDRGTGDYRNSRFYYGMDVWGQGTTVTVSS
# notes: From hSPLINT_09 selection
# How the values were obtained:
# [1] = target: T3, mouse Ig1,2 TrkA (recombinant D4-D5 domain of murine TrkA receptor) (mouse, UniProt Q3UFB7 193-413); experiment: SPR (Biacore X-100) kinetic analysis
# T3 construct: also called mTrkA Ig1,2
# [2] = target: T1, human Ig1,2 TrkA (recombinant D4-D5 …); experiment: SPR (Biacore X-100) kinetic analysis
# [3] = target: T4, human TrkA receptor (native, on TF-1 cells) (human, UniProt P04629 33-796); experiment: cell-based or functional assay
# [4] = target: T4, human TrkA receptor (native, on TF-1 …); experiment: chip-based flow cytometry (Agilent Bioanalyzer 2100) on TF-1 cells expressing human TrkA; scFv at 5 µg/ml per paragraph 159
# Experimental: FIG. 5. FACS analysis performed with Bioanalyzer 2100. A cell fluid chip-based fluorescent cytometric assay that runs on Bioanalyzer 2100 (Agilent) for fast characterization of small population cell phenotypes was assessed. The assay determines the expression of specific cell surface markers. In this experiment, the specificity of scFvs on TF-1 cell line expressing human TrkA receptor was assessed. Six samples can be analyzed on each chip in one automated process. Results were in good agreement with conventional flow cytometry in quantisation.
# 10⁶ cells/sample=tot: 6×10⁶ cells are first centrifuged at 350 g for 5 min at room temperature (RT) and wash with 12 ml of Staining Buffer (SB) at RT. The pellet was resuspended in 3 ml of SB at 4° C. and aliquot 0.5 ml of suspension in 1.5 ml conical tubes. Cells were centrifuged again at 350 g for 5 min at 4° C. and the pellet was resuspended in 1 ml HBSS at 4° C. 125 μl 16% p-formaldehyde (final conc 1.7%) was added into each tube and then the sample was incubated for 10 min at 4° C. on tube rotator. After 10 minutes, 75 μl of 10% detergent solution-Tween 20 (final conc 0.6%) was added and the samples were then incubated for 10 min at 4° C. on tube rotator. Samples were then washed once with FACS Buffer (0.8 ml/sample) at 4° C. and then centrifuged at 350 g for 5 min at 4° C. Cells were resuspended with 80 μl/sample of FACS Buffer. 20 μl of a 5× primary antibody solution were added (final concentration of scFvs is 5 μg/ml). After incubation for 1 hour at 4° C. on tube rotator samples were washed with FACS Buffer (0.5 ml/sample) at 4° C. and then centrifuged 5 min at 350 g at 4° C. Cells were resuspended with 80 μl/sample of FACS Buffer. 20 μl of a 5× secondary antibody solution were added. Final concentration of mouse anti-V5 antibody is 0.20 μg/ml. The samples were incubated for 1 hour at 4° C. on tube rotator. After incubation for 1 hour at 4° C. on tube rotator samples were washed with FACS Buffer (0.5 ml/sample) at 4° C. and then centrifuged 5 min at 350 g at 4° C. Cells were resuspended with 80 μl/sample of FACS Buffer. 20 μl of a 5× tertiary antibody solution were added. Final concentration of anti-mouse IgG-Cy5 is 4 μg/ml (1:250 diluted). The samples were incubated for 1 hour at 4° C. on tube rotator.
# [5] = target: T3, mouse Ig1,2 TrkA (recombinant D4-D5 …); experiment: SPR (Biacore X-100); scFv immobilised on CM5 chip, mouse Ig1,2 TrkA injected
# Experimental: (§1) The antibodies were also shown to be specific for hTrkA and mTrkA by relative binding to the BIACore sensor chips coated with the appropriate antigen. Antibodies were immobilized by ammine coupling to Biosensor CM5 sensorchips (Pharmacia) according to the manufacturers instructions. Anti-TrkA scFv proteins were diluted at 20-50 μg/ml in suitable pre-concentration buffer (at least 2 pH unit below the pI of the scFv in order to get a net positive charge), chosen among the Acetate buffers. The scFvs were immobilized at 100 RU to get a low density immobilization. As binder, the recombinant protein consisting of D4-D5 domain of human and murine TrkA receptor (hTrkA Ig1,2 and mTrkA Ig1,2 respectively) were injected over the immobilized scFv with a contact time of 60 seconds and with a dissociation time of 400 seconds and the assay workflow placed 5 serial dilutions of the TrkA Ig1,2 (starting in the micromolar range and diluting 1:2 each time). The regeneration condition were mild (contact time 30 seconds, 10 mM Glycine pH2). On the basis of the resulting sensorgrams, the concentrations of TrkA Ig1,2 were adjusted to optimize, contact time, dissociation time and regeneration. Data were analysed by Bioevaluation Software (see results on Table II and Table III). The quality of the data fitting were checked by the value of Chi² and of the U-value.
# (§2) We have carried out surface plasmon resonance (SPR) analyses to determine the binding kinetics of a panel of isolated anti-TrkA scFvs (SEQ ID NOs: 1, 2, 3, 4, 5, 6, 7, 8, 9, 10, 11, 12, 13, 14, 15 and 16). The scFvs were immobilized on a CM5 chip followed by injections at various concentration of human and murine Ig 1,2 TrkA (SEQ ID NO: 78) and mouse Ig1,2 TrkA (SEQ ID NO: 79).
# [6] = target: T2, human p75 immunoadhesin; experiment: specificity ELISA, antigens coated at 2 µg/mL, scFv at 50 ug/mL (upper panel) and 5 ug/mL (lower panel), OD 450 nm
# Experimental: (§3) FIG. 3. Specificity ELISA of isolated anti-TrkA scFvs versus human TrkA immunoadhesin (hTrkA-Fc), human TrkB immunoadhesins (hTrkB-Fc), human TrkC immunoadhesins (hTrkC-Fc) and human p75 immunoadhesins (hp75-Fc). Human antigens were coated at 2 μg/mL. Anti-TrkA scFvs were used at 50 μg/mL (upper panel) and/or 5 μg/mL (lower panel). The mean absorbance at 450 nm of the experiments performed in duplicate wells is shown with SD indicated by the bars.
# [7] = target: T5, human TrkC immunoadhesin (human; Camelus dromedarius, UniProt Q16288 32-429); experiment: as above
# T5 construct: extracellular domain; also called hTrkC-Fc; TrkC immunoadhesins; not shown: Fc portion (immunoglobulin heavy chain constant region) of IgG2a camel antibody (Camelus dromedarius)
# Experimental: as §3
# [8] = target: T6, human TrkB immunoadhesin (human; Camelus dromedarius, UniProt Q16620 32-430); experiment: as above
# T6 construct: extracellular domain; also called hTrkB-Fc; TrkB immunoadhesins; not shown: Fc portion (immunoglobulin heavy chain constant region) of IgG2a camel antibody (Camelus dromedarius)
# Experimental: as §3
# [9] = target: T1, human Ig1,2 TrkA (recombinant D4-D5 …); experiment: SPR (Biacore X-100); scFv immobilised on CM5 chip, human Ig1,2 TrkA injected
# Experimental: as §1, §2
# T3 sequence (Q3UFB7 other isoform, or with tags, fused parts or gaps limits assumed): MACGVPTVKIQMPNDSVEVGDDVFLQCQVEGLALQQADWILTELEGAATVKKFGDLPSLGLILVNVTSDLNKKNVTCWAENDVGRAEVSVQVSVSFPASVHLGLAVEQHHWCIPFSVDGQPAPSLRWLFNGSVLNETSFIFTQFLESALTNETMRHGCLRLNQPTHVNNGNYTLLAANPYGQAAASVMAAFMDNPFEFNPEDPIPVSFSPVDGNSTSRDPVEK
# T4 sequence (P04629 33-796 limits assumed): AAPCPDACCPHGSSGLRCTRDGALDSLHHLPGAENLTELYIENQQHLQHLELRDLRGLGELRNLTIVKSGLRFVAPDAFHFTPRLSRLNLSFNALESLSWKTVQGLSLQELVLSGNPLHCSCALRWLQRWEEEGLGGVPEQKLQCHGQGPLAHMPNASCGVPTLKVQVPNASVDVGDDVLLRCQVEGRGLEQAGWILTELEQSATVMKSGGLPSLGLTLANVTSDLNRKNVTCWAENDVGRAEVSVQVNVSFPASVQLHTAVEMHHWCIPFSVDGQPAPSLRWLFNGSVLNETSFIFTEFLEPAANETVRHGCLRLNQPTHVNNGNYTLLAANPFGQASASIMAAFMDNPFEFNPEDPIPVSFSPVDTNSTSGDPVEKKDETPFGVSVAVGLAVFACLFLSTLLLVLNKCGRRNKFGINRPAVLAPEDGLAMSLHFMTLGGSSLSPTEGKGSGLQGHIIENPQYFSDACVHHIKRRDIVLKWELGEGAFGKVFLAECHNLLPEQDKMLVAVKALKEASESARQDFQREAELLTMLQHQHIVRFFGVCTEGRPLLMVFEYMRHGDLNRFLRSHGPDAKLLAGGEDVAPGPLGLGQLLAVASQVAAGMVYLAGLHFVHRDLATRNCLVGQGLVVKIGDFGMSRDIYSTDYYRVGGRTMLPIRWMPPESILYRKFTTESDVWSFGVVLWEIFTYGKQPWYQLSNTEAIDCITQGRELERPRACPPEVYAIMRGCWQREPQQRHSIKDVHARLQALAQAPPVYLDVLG
# T6 sequence (Q16620 32-430): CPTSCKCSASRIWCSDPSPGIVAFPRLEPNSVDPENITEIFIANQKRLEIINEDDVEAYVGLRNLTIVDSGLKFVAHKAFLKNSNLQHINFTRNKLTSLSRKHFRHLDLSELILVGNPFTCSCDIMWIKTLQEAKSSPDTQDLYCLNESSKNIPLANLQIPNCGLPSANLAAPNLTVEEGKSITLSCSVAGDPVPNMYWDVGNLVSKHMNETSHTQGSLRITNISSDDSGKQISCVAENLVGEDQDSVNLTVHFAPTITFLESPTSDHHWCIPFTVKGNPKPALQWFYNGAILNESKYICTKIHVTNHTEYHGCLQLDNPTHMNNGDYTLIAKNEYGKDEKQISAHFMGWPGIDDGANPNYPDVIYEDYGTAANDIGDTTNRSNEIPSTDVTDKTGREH
Binder,Kd [1],koff [1],kon [1],Kd [2],koff [2],kon [2],IC50 of inhibition of NGF-mediated TF1 cell proliferation (MTT assay) [3],binding result [4],Kd [5],koff [5],kon [5],binding result [6],binding result [7],binding result [8],Kd [9],koff [9],kon [9]
B1,27.6 nM,0.000136 s⁻¹,4950 M⁻¹ s⁻¹,16.1 nM,0.000103 s⁻¹,6420 M⁻¹ s⁻¹,~43 nM and ~40 nM,,,,,,,,,,
B2,,,,,,,,binds,38.5 nM,0.000131 s⁻¹,3410 M⁻¹ s⁻¹,no binding (tested: 50 ug/mL),no binding (tested: 50 ug/mL),no binding (tested: 50 ug/mL),1.16 nM,3.2e-06 s⁻¹,2760 M⁻¹ s⁻¹
B3,,,,,,,,binds,17 nM,4.93e-05 s⁻¹,2910 M⁻¹ s⁻¹,no binding (tested: 50 ug/mL),no binding (tested: 50 ug/mL),no binding (tested: 50 ug/mL),2.04 nM,7.48e-06 s⁻¹,3680 M⁻¹ s⁻¹
